{"source": "paper PMC3078936", "origin": "cited, not measured here", "target": "Bmf (Homo sapiens)", "conditions": "cited from earlier work"}
{"substance": "DYNLL1 (from UniProt P63167)", "values": [{"measurement": "Kd", "result": 750, "unit": "nM"}]}
